# Measurements from US5196309A, “Characterization of platelet aggregation disorders” (The Scripps Research Institute, priority 1990, dated 1993).
# Where no end group is shown, it is not given here.
# Key:
# platelets [1] = assay: 125I-fibrinogen binding to platelets; details: 10 uM ADP; 37 degrees, 30 minutes
# Method: Fibrinogen was isolated and labelled with ^125 I by standard methods as described by Marguerie et al., J. Biol. Chem., 255:154-161 (1980) to form ^125 I-Fg. Thereafter, the binding of ^125 I-Fg to platelets was assayed as described previously. Marguerie et al., J. Biol. Chem., 255:154-161 (1980). Binding was initiated by the admixture of a million resting platelets in the presence or absence of 10 micromolar adenosine diphosphate (ADP) to radiolabelled fibrinogen at varying concentrations from 0.01 to 1 nanomolar (nM) and incubation at 37 degrees for 30 minutes. Bound fibrinogen was separated from free fibrinogen by centrifugation of the platelet-fibrinogen admixture through 0.3 ml of 20% sucrose and the amount of radiolabelled fibrinogen associated with the cell pellet determined by gamma detection.
# [2] = target: T1, GPIIb-IIIa on normal platelets (Homo sapiens, UniProt P05106+P08514); assay: Flow cytometry of platelet surface GPIIb-IIIa, normal (control) platelets; type: binding
# T1 construct: Analysis of Platelet Surface GPIIb-IIIa by Flow Cytometry; from tissue; host or cells: platelets in platelet-rich plasma from venous blood of controls
# Method: (§1) Samples were incubated without stirring in a total volume of 50 μL for 15 minutes at room temperature with agonists and peptides as indicated. Samples were then diluted to 0.5 mL with Tyrode's buffer and analyzed on a FACStar flow cytometer (Bectin-Dickinson Immunocytometry Systems, Mountain View, Calif.). Light scatter and fluorescence signals were acquired at logarithmic gain, and 10,000 platelets in each sample were analyzed. Results are expressed as mean platelet fluorescence intensity in arbitrary fluorescence units or as histograms of log platelet fluorescence intensity in arbitrary units on the abscissa and platelet number on the ordinate.
# [3] = target: T2, GPIIb-IIIa on Cam platelets (Homo sapiens, UniProt P05106+P08514, D145Y); assay: Flow cytometry of platelet surface GPIIb-IIIa, Cam variant thrombasthenia platelets; type: binding
# T2 construct: from tissue; host or cells: platelets in platelet-rich plasma from venous blood of two Cam variant siblings
# Text: FIGS. 2A through 2H show a flow cytometric analysis of the deficit in Cam variant of thrombasthenia. Shown are histograms with the log of fluorescence intensity on the abscissa and cell number on the ordinate. The reporting antibody is indicated in the left hand column. Cam platelets are shown in FIGS. 2A, 2C, 2E and 2G and the normal control in FIGS. 2B, 2D, 2F and 2H. Each column of figures contains a legend indicating the added agonist, peptide, or antibody. […] Similar data were obtained with other antibodies to GPIIb-IIIa (7E3, 10E5, 4F10) and an antibody to GPIIb (Tab). The Cam variant data shown are representative of determinations on two affected male siblings with identical results.
# Based on the model depicted in FIG. 1, abnormal platelet aggregation can arise from a defect in the activation of platelet fibrinogen receptors, a defect in fibrinogen binding per se, or a defect in the postoccupancy events required for optimal aggregation. The potential usefulness of this model was tested by studying two patients with persistent and severe defects in platelet aggregation. To quantitate fibrinogen receptor activation and ligand binding, a fluorescein-labeled MoAb (PAC1) which specifically recognizes the activated form of GPIIb-IIIa, was employed (Shattil et al., J. Biol. Chem., 260:11107 (1985)). Antibody binding was measured in small (5 μL) samples of platelet rich plasma by flow cytometry.
# Platelet rich plasma was obtained by taking venous blood from patients and controls who had not ingested medications for at least 10 days, anticoagulating with 1/10 volume of 3.8% sodium citrate, and sedimentating red and white blood cells at 180 g for 20 minutes at room temperature. Immediately thereafter, 5-μL aliquots of platelet-rich plasma were added to polypropylene tubes containing a fluorescein isothiocyanate-conjugated monoclonal antibody (10^-9 to 10^-6 mol/L) in Tyrode's buffer (1% bovine serum albumin, 2 mmol/L MgCl2, 137.5 mmol/L NaCl, 12 mmol/L NaHCO3, 2.6 mmol/L KCl, pH 7.4). Samples were incubated without stirring in a total volume of 50 μL for 15 minutes at room temperature with agonists and peptides as indicated. Samples were then diluted to 0.5 mL with Tyrode's buffer and analyzed on a FACStar flow cytometer (Bectin-Dickinson Immunocytometry Systems, Mountain View, Calif.). Light scatter and fluorescence signals were acquired at logarithmic gain, and 10,000 platelets in each sample were analyzed. Results are expressed as mean platelet fluorescence intensity in arbitrary fluorescence units or as histograms of log platelet fluorescence intensity in arbitrary units on the abscissa and platelet number on the ordinate.
# normal GPIIb-IIIa = assay: KYGRGDS affinity chromatography of surface-labeled platelet lysate, normal platelets; type: binding, human
# Method: (§2) To directly examine the ligand binding function of Cam GPIIb-IIIa, extracts of ^125 I surface-labeledplatelets were subjected to affinity chromatography using an immobilized RGD peptide.
# (§3) Platelets were isolated from acid-citrate dextrose anticoagulated human blood by differential centrifugation followed by gel filtration on Sepharose 2B (Ginsberg et al., Blood, 69:58 (1987)). Lysates of surface-labeled platelets were analyzed by KYGRGDS affinity chromatography as described by Lam et al., J. Biol. Chem., 262:947 (1987). Briefly, intact platelets were radioiodinated by the lactoperoxidase-H2 O2 method then resuspended to 2×10^8 platelets/mL and solubilized in lysis buffer containing 10 mmol/L N-2-hydroxyethylpiperazine-N'-2-ethanesulfonic acid (HEPES), pH 7.5, 0.15 mol/L NaCl, 1 mmol/L CaCl2, 1 mmol/L MgCl2, 0.1 mmol/L leupeptin, 1 mmol/L phenylmethanesulfonylfluoride (PMSF), 10 mmol/L N-ethylmaleimide, and 50 mmol/L octylglucoside. […] Under these conditions approximately 10% of normal GPIIb-IIIa is bound and eluted.
# (§4) The GPIIb-IIIa content in the starting material and in the column fractions was quantitated by use of a polyclonal anti-GPIIb-IIIa antibody in an ELISA assay. The control extract contained 332 μg; the Cam individual contained 240 μg in the starting extract. The eluted fractions from the control extract contained 20 μg GPIIb-IIIa. […]
# Cam GPIIb-IIIa = assay: KYGRGDS affinity chromatography of surface-labeled platelet lysate, Cam platelets; type: binding, human; details: Cam extract, 240 μg GPIIb-IIIa in starting extract; eluted with GRGDSP
# Method: as §2, §3, §4
# [4] = test system: GPIIb-IIIa on MPD platelets; assay: Flow cytometry of platelet surface GPIIb-IIIa, myelofibrosis (MPD) patient platelets; type: binding, human
# Method: The disclosing antibody is indicated in the left hand column. In each column, the legend indicates the added agonist or peptide. Agonist and peptide concentrations were identical to those in FIGS. 2A-2H. Phorbol myristate acetate (PMA) was present in a final concentration of 50 nmol/L. Anti-TSP refers to the binding of a MoAb against thrombospondin.
# as §1
# platelets [5] = details: cited from earlier work
# GPIIb-IIIa = details: cited from earlier work
compound,measurement,setting,value
"Nc1ncnc2c1ncn2[C@@H]1O[C@H](COP(=O)(O)OP(=O)(O)O)[C@@H](O)[C@H]1O [ADP, adenosine diphosphate]",Increase in number of 125I-Fg molecules bound to platelets,platelets [1],at least a three fold increase
Gly-Arg-Gly-Asp-Ser-Pro [GRGDSP],"Fluorescence Increase (LIBS-1 expression, anti-LIBS 1 binding), Normal","[2]; [GRGDSP] 2 μM, normal platelets",20
same,"Fluorescence Increase (LIBS-1 expression, anti-LIBS 1 binding), Normal","[2]; [GRGDSP] 4 μM, normal platelets",31
same,"Fluorescence Increase (LIBS-1 expression, anti-LIBS 1 binding), Normal","[2]; [GRGDSP] 10 μM, normal platelets",48
same,"Fluorescence Increase (LIBS-1 expression, anti-LIBS 1 binding), Normal","[2]; [GRGDSP] 40 μM, normal platelets",70
same,"Fluorescence Increase (LIBS-1 expression, anti-LIBS 1 binding), Normal","[2]; [GRGDSP] 200 μM, normal platelets",106
same,"PMI-1 binding, mean fluorescence intensity",[2]; normal platelets treated with 200 μmol/L GRGDSP,151 fluorescence units
same,"anti-LIBS1 binding, mean fluorescence",[2]; normal platelets with GRGDSP 200 μmol/L,205 U
same,Increase in PMI-1 binding,"[2]; normal platelets, 200 μmol/L GRGDSP",2.5 fold
same,Increase in anti-LIBS1 binding caused by peptide,"[2]; normal platelets, GRGDSP 200 μmol/L",fourfold increase
same,"PMI-1 binding, mean fluorescence intensity",[3]; Cam platelets treated with 200 μmol/L GRGDSP,107 fluorescence units
same,"anti-LIBS1 binding, mean fluorescence",[3]; Cam platelets with GRGDSP 200 μmol/L,25 U
same,Change in PMI-1 binding in response to GRGDSP,"[3]; Cam platelets, 200 μmol/L GRGDSP",no increase
same,Change in anti-LIBS1 binding caused by GRGDSP,"[3]; Cam platelets, GRGDSP 200 μmol/L",no increase
same,"Fluorescence Increase (LIBS-1 expression, anti-LIBS 1 binding), Cam","[3]; [GRGDSP] 2 μM, Cam platelets",3
same,"Fluorescence Increase (LIBS-1 expression, anti-LIBS 1 binding), Cam","[3]; [GRGDSP] 4 μM, Cam platelets",3
same,"Fluorescence Increase (LIBS-1 expression, anti-LIBS 1 binding), Cam","[3]; [GRGDSP] 10 μM, Cam platelets",3
same,"Fluorescence Increase (LIBS-1 expression, anti-LIBS 1 binding), Cam","[3]; [GRGDSP] 40 μM, Cam platelets",3
same,"Fluorescence Increase (LIBS-1 expression, anti-LIBS 1 binding), Cam","[3]; [GRGDSP] 200 μM, Cam platelets",6
KYGRGDS [Lys-Tyr-Gly-Arg-Gly-Asp-Ser],GPIIb-IIIa in eluted fractions (ELISA),"normal GPIIb-IIIa; control extract, 332 μg GPIIb-IIIa in starting extract, eluted with GRGDSP",20 µg
same,Share of normal GPIIb-IIIa bound to KYGRGDS-Sepharose and eluted,"normal GPIIb-IIIa; lysate 12 hours at 4° C., eluted with 1 mmol/L GRGDSP",approximately 10%
same,GPIIb-IIIa in eluted fractions (ELISA),Cam GPIIb-IIIa,2.6 µg
LGGAKQAGDV [gamma(402-411)],"anti-LIBS1 binding, fluorescence",[2]; control platelets with gamma(402-411) 400 μmol/L,201 fluorescence U
same,"anti-LIBS1 binding, fluorescence",[3]; Cam platelets with gamma(402-411) 400 μmol/L,31 U
same,Change in anti-LIBS1 binding caused by gamma(402-411),"[3]; Cam platelets, gamma(402-411) 400 μmol/L",failed to increase
PAC 1,PAC1 fluorescence of PMA-activated Cam platelets,[3]; 50 nmol/L phorbol myristate acetate (PMA),no increase
same,PAC1 binding to ADP-activated Cam platelets,[3]; ADP 100 μmol/L,complete lack of binding
same,Expression of PAC1 binding sites on stimulated MPD platelets,[4]; 50 μmol/L epinephrine (not shown),did not express PAC1 binding sites
same,Expression of PAC1 binding sites on stimulated MPD platelets,[4]; 10 μm ADP,did not express PAC1 binding sites
same,PAC1 binding to MPD platelets in response to PMA,[4]; PMA 50 nmol/L,bound
same,Fibrinogen Binding (effect of antibody on fibrinogen binding to platelets),platelets [5],Decrease
same,Effect of Peptides (RGD or fibrinogen gamma chain C-terminal peptides) on antibody binding,GPIIb-IIIa,Decrease
